# Measurements: patent US20240385190A1 (EISAI R AND D MANAGEMENT, published 2024)
# Assays:
# Assay in all cases: ELISA
# [1] = molecular target: T1, Rabbit
# T1 construct: also called rabbit EphA4 extracellular domain-SEAP-His protein
# Protocol: (§1) For the anti-human EphA4 monoclonal antibodies produced in Example 1, evaluation of binding activity to various EphA4 was performed according to the following steps. Mouse anti-6-His antibodies (R&D) were coated on the wells of a 96-well plate (Thermo […]). After incubating at room temperature for 1 hour, the wells were blocked at 4° C. overnight with 1% Block Ace (KAC). After washing three times with 0.02% Tween 20/PBS, the wells were seeded with mouse EphA4 extracellular domain-SEAP-His protein, rat EphA4 extracellular domain-SEAP-His protein, rabbit EphA4 extracellular domain-SEAP-His protein, monkey EphA4 extracellular domain-SEAP-His protein, human EphA4 extracellular domain-SEAP-His protein, or SEAP-His protein (final concentration 1 nM), and this was incubated at room temperature for 1 hour. After washing three times, anti-human EphA4 rabbit monoclonal antibody (10 pg/mL) was added, and this was incubated at room temperature for about 1 hour. After washing three times, horseradish peroxidase labeled goat anti-rabbit IgG polyclonal antibody (abcam) was added, and this was incubated at room temperature for 1 hour. After washing three times, TMBZ (3,3′,5,5′-tetramethylbenzidine, KPL) solution was added to the wells, and this was incubated for 3 minutes at room temperature. Equal amounts of quenching solution (2 N H₂SO₄, FUJIFILM Wako) were added to the wells, and absorbance at 450 nm and 650 nm were read with a microplate reader (Thermo […]).
# [2] = molecular target: T2, Mouse
# T2 construct: also called mouse EphA4 extracellular domain-SEAP-His protein
# Protocol: as §1
# [3] = molecular target: T3, SEAP
# T3 construct: negative control antigen; also called SEAP-His protein
# Protocol: as §1
# [4] = molecular target: human EphA4 extracellular domain-SEAP-His protein (human)
# Protocol: as §1
# [5] = molecular target: T4, monkey EphA4 extracellular domain-SEAP-His protein (monkey)
# T4 construct: the fusion as a whole has none; not shown: SEAP-His part
# Protocol: as §1
# [6] = molecular target: FN1
# Protocol: (§2) For the anti-human EphA4 monoclonal antibodies produced in Example 1, evaluation of binding activity to various EphA4 was performed according to the following steps. Mouse anti-6-His antibodies (R&D) were coated on the wells of a 96-well plate (Thermo […]). After incubating at room temperature for 1 hour, the wells were blocked at room temperature for 1 hour with 1% Block Ace (KAC). After washing three times with 0.02% Tween 20/PBS, the wells were seeded with human EphA4 extracellular domain-MBP-His protein, human EphA4 ligand binding domain-MBP-His protein, human EphA4 fibronectin III-type domain 1-MBP-His protein, human EphA4 fibronectin III-type domain 2-MBP-His protein, or MBP-His protein (final concentration 1 nM), and this was incubated at room temperature for 1 hour. After washing three times, anti-human EphA4 rabbit monoclonal antibody (10 pg/mL) was added, and this was incubated at room temperature for 1 hour. After washing three times, horseradish peroxidase labeled goat anti-rabbit IgG polyclonal antibody (abcam) was added, and this was incubated at room temperature for 1 hour. After washing three times, TMBZ (3,3′,5,5′-tetramethylbenzidine, KPL) solution was added to the wells, and this was incubated for four and a half minutes at room temperature. Equal amounts of quenching solution (2 N H₂SO₄, FUJIFILM Wako) were added to the wells, and absorbance at 450 nm and 650 nm were read with a microplate reader (Thermo […]).
# [7] = molecular target: FN2
# Protocol: as §2
# [8] = molecular target: T5, human EphA4 extracellular domain-MBP-His protein (human)
# T5 construct: also called human EphA4 extracellular domain (ECD); Human EphA4 extracellular domain-MBP-His 10
# Protocol: as §2
# [9] = molecular target: human EphA4 ligand binding domain-MBP-His protein (human, UniProt P54764 20-209; P0AEX9 29-392 = MBP)
# Protocol: as §2
# [10] = molecular target: T6, Rat
# T6 construct: also called rat EphA4 extracellular domain-SEAP-His protein
# Protocol: as §1
# [11] = molecular target: MBP
# Protocol: as §2
# T4 sequence (chain, as listed by the source): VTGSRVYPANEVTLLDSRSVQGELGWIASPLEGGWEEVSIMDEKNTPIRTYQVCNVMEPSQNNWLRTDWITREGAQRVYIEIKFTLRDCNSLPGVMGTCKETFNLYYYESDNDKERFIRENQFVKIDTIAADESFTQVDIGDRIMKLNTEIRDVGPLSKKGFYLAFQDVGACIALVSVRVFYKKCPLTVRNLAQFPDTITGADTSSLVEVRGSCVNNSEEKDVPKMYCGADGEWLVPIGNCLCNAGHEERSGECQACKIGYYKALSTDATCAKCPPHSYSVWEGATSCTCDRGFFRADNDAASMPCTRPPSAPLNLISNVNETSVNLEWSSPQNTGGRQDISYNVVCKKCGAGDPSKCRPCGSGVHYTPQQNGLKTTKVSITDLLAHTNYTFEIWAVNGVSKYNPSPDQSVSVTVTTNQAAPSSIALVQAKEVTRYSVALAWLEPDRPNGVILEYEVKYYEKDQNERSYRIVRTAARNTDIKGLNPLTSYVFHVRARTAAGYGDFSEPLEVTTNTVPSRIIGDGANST
# Chain of human EphA4 extracellular domain-SEAP-His protein (human) (chain, as listed by the source limits assumed): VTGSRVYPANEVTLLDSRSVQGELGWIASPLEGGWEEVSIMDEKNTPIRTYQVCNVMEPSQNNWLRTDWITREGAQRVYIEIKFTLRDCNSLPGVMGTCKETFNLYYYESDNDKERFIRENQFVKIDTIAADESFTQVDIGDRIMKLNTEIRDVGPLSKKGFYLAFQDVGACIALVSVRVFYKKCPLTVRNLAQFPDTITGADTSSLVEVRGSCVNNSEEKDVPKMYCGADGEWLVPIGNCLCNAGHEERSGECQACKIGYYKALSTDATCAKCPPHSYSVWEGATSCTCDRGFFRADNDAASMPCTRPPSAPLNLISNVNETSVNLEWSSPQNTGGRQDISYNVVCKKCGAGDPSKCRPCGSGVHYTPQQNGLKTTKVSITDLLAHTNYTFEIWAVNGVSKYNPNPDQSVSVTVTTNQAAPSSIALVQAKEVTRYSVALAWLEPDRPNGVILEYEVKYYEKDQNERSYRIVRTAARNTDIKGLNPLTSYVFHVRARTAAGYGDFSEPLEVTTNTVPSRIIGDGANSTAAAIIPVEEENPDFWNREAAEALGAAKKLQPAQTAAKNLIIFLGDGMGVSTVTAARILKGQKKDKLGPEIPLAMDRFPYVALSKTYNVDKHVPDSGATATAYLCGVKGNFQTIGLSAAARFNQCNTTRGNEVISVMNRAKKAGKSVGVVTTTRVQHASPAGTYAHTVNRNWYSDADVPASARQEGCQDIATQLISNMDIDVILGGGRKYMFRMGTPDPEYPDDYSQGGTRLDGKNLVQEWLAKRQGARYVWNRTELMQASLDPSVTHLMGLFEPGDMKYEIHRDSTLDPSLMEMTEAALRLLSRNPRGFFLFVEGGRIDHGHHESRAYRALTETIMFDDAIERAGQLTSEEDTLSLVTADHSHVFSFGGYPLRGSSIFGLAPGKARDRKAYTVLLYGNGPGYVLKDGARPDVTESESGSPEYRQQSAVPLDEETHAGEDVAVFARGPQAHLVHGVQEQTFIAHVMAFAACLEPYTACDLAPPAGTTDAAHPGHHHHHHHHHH
Binder,absorbance [1],absorbance [2],absorbance [3],absorbance [4],absorbance [5],absorbance [6],absorbance [7],absorbance [8],absorbance [9],absorbance [10],absorbance [11]
"KPEP11_02 (antibody, V domains shown, Rabbit IgG; also called anti-human EphA4 rabbit monoclonal antibody KPEP11_02) VH: QSLEESGGRLVTPGGSLTLTCTVSGIDLSSYAMSWVRQAPEKGLEWIGFINNYGTYYASWAKGRFTISKTSTTVDLKVTSLTTEDTATYFCVRGGRSPNYDIVSGDIWGPGTLVTVSS VL: YVMMTQTPSSVSEPVGGTVTIKCQASQNIYNSLAWYQQKPGQRPKLLIADASELASGVPQRFSGSGSGTQFTLTISDLECADAATYYCQSSSAGDSYVGGFGGGTEVVVKG",0.04,0.048,0.071,1.25,1.2,0.213,0.227,1.35,1.32,,
"KPEP11_05 (antibody, V domains shown, Rabbit IgG; also called anti-human EphA4 rabbit monoclonal antibody KPEP11_05) VH: QSLEESGGRLVTPGGSLTLTCTVSGIDLSSYAMSWVRQAPEKGLEWIGFINNYGTYYASWAKGRFTISKTSTTVDLKVTSLTTEDTATYFCVRGGRSPNYDIVSGDIWGPGTLVTVSS VL: YVMMTQTPSSVSEPVGGTVTIKCQASQNIYNSLAWYQQKPGQRPKLLIADASELASGVPQRFSGSGSGTQFTLTISDLECADAATYYCQSSSAGDSYVGGFGGGTEVVVKG",0.035,0.045,0.043,,1.24,0.213,0.225,1.43,1.32,0.043,0.239
"KPEP11_07 (antibody, V domains shown, Rabbit IgG; also called anti-human EphA4 rabbit monoclonal antibody KPEP11_07) VH: QEQLKESGGRLVTPGGSLTLTCTVSGIDLSSYAMSWVRQAPEKGLEWIGFINMYGTYYASWAKGRFTISRTSTTVDLKVTSLTTEDTATYFCVRGGRSPDYDIVSGDIWGPGTLVTVSS VL: YVMMTQTPSSVSEPVGGTVTIKCQASQNIYNSLAWYQQKPGQRPKLLIADASELASGVPQRFSGSGSGTQFTLTISDLECADAATYYCQSSSAGDSYVGGFGGGTEVVVKG",,0.045,0.05,1.22,1.18,0.226,0.22,1.42,1.39,0.044,0.24
"KPEP11_20 (antibody, V domains shown, Rabbit IgG; also called anti-human EphA4 rabbit monoclonal antibody KPEP11_20) VH: QSLEESGGRLVTPGTPLTLTCTVSGFSLNNYYMNWVRQAPGKGLEWIGIIYPDIDTTDYASWVKGRFTISKTSTTVDLKITSPTTEDTATYFCARSDIDYYTTRLDLWGQGTLVTISS VL: AQVLTQTPSPVSAAVGGTVSINCQSSPSVYNNNWLSWFQQKPGQPPKLLIYGASTLASGVPSRFKGSGSGTQFTLTISDVQCDDAATYYCAGGYDSNSDTAFGGGTELEILG",0.046,0.052,0.067,1.16,1.15,0.207,0.238,1.26,1.42,0.062,0.274
"KPEP11_12 (antibody, V domains shown, Rabbit IgG; also called anti-human EphA4 rabbit monoclonal antibody KPEP11_12) VH: QSLEESGGRLVTPGTPLTLTCTVSGFSLSSYHMSWVRQAPGKGLEWIGIIYRSGNTYYANWAKGRFTISKTSTTVDLKITSPTTEDTATYFCARESSTFYGMDLWGPGTLVTVSS VL: YVMMTQTPSSVSAAVGGTVTINCQASQSVYGNNELAWYQQKPGQRPKLLIYRASTLASGVPSRFKGSGSGTEFTLTISDLECADAATYYCLGYKSDDYTFGGGTKVEIKG",0.055,0.059,0.067,1.22,1.19,0.255,,1.29,0.283,0.054,0.302
"KPEP11_13 (antibody, V domains shown, Rabbit IgG; also called anti-human EphA4 rabbit monoclonal antibody KPEP11_13) VH: QSLEESGGRLVTPGTPLTLTCTVSGFSLSSYHMSWVRQAPGKGLEWIGIIYRSGNTYYANWAKGRFTISKTSTTVDLKITSPTTEDTATYFCARESSTFYGMDLWGPGTLVTVSS VL: YVMMTQTPSSVSAAVGGTVTINCQASQSVYGNNELAWYQQKPGQRPKLLIYRASTLASGVPSRFKGSGSGTEFTLTISDLECADAATYYCLGYKSDDYTFGGGTKVEIKG",0.083,0.082,0.099,1.18,1.17,0.318,0.36,1.31,0.348,0.086,0.402
"KPEP11_01 (antibody, V domains shown, also called anti-human EphA4 rabbit monoclonal antibody KPEP11_01) VH: QSVEESGGRLVTPGTPLTLTCTVSGFSLSSYHMSWVRQAPGKGLEWIGIIYRSGNTYSANWAKGRFTISKTSTTVDLKITSPTTEDTATYFCARESSTFYGMDLWGPGTLVTVSS VL: YVMMTQTPSSVSAAVGGTVTINCQASQSVYGNNELAWYQQKPGQRPKLLIYRASTLASGVPSRFKGSGSGTEFTLTISDLECADAATYYCLGYKSDDYTFGGGTKVEIKG",0.045,0.049,0.052,1.21,1.18,0.228,0.235,,0.236,0.042,0.231
"KPEP11_09 (antibody, V domains shown, Rabbit IgG; also called anti-human EphA4 rabbit monoclonal antibody KPEP11_09) VH: QSVEESGGRLVTPGTPLTLTCTVSGFSLSSYHMSWVRQAPGKGLEWIGIIYRSGNTYSANWAKGRFTISKTSTTVDLKITSPTTEDTATYFCARESSTFYGMDLWGPGTLVTVSS VL: YVMMTQTPSSVSAAVGGTVTINCQASQSVYGNNELAWYQQKPGQRPKLLIYRASTLASGVPSRFKGSGSGTEFTLTISDLECADAATYYCLGYKSDDYTFGGGTKVEIKG",,0.079,0.07,1.14,1.15,0.24,0.242,1.24,,0.064,0.291
